# In patent US7354588B1, “Functional derivatives of ICAM-1 with altered ability to bind LFA-1 or HRV” (Dana Farber Cancer Institute, priority 1987, dated 2008):
# “Also recorded” adds a separate entry of the source.
# Key:
# LFA-1 = target: T1, LFA-1 (Homo sapiens, UniProt P05107+P20701); assay: Adherence of COS cells expressing ICAM-1 or ICAM-1 mutants to plastic-bound purified LFA-1; assay type: cell-based; conditions: for LFA-1 Binding %: COS cells expressing ICAM-1 mutant adhering to LFA-1 coated plastic, normalized for percent of cells expressing mutant and for wild type binding, mean; for LFA-1 binding of ICAM-1 mutant (in words): COS cells expressing the mutant, relative to wild type
# T1 construct: endogenous in cells
# T1 sequence (P20701 26-1170): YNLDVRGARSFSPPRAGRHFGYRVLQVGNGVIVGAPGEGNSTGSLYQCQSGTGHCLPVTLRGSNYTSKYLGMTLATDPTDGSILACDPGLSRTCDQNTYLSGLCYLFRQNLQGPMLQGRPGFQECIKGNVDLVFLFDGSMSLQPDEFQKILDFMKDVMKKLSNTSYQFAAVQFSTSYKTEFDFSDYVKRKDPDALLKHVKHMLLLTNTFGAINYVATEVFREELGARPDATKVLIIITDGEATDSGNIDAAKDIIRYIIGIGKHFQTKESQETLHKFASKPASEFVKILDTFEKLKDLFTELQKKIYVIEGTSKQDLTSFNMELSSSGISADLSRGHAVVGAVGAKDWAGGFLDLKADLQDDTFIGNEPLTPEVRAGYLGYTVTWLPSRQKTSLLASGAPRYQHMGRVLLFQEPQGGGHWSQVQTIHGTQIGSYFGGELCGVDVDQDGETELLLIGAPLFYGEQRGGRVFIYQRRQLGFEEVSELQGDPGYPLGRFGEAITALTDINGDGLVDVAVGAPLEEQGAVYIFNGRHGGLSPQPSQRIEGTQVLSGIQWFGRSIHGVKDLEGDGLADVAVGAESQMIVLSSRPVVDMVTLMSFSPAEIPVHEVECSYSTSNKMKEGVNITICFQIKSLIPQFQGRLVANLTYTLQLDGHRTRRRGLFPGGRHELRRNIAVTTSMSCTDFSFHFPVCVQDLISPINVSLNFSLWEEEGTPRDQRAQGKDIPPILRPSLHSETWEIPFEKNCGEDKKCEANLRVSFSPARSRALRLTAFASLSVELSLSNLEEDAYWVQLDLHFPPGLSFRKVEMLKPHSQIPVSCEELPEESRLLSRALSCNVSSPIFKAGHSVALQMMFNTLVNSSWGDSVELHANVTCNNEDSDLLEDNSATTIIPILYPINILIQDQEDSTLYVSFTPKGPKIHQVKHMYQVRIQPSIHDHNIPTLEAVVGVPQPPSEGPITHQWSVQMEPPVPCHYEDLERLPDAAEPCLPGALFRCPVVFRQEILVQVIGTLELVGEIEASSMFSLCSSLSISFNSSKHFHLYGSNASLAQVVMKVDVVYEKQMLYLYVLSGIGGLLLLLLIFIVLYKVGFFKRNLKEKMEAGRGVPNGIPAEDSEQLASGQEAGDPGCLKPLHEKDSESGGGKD
# T1 sequence (P05107 23-769): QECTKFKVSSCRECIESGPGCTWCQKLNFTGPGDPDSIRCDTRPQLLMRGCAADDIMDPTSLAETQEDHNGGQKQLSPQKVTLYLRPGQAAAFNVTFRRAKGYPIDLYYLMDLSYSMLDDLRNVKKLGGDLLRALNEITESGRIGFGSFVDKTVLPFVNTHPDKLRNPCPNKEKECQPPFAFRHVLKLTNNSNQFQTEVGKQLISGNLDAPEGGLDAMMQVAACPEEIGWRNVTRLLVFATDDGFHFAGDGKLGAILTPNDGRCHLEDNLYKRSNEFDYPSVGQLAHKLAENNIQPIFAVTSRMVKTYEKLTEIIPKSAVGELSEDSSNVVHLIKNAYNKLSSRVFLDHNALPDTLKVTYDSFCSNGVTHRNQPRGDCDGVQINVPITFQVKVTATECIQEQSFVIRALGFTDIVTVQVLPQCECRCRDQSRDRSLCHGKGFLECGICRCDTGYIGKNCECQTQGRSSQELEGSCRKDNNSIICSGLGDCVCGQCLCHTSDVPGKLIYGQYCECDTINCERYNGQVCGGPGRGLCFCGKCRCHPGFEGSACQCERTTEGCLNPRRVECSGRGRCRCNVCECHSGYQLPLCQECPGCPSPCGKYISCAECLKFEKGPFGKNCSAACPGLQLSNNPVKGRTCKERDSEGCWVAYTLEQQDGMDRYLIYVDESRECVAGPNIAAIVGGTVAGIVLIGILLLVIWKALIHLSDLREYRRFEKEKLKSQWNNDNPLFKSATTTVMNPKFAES
# HRV14 = assay: Binding of [^35S]-Met labeled HRV14 to COS cells expressing ICAM-1 mutants; assay type: cell-based, human rhinovirus 14; conditions: for HRV Binding %: 35S met-labeled HRV14 binding to COS cells expressing ICAM-1 mutant, normalized for percent of cells expressing mutant and for wild type binding, mean
# CL203 mAb = assay: Indirect immunofluorescence flow cytofluorometry: mAb CL203 binding to COS cells expressing ICAM-1 mutants (SLFI, % WT); assay type: cell-based; conditions: SLFI of CL203 for mutant normalized to wild type CL203 SLFI; level of expression
# Experimental: (§1) For HRV binding studies, COS cells were reseeded in a 24 well plate. One day later, the confluent monolayer was washed twice with 1 ml of RPMI 1640/10 mM MgCl2/25 mM Hepes pH 7.3 (rhinovirus-14 buffer). Transfected COS cells were labeled with 51Cr for binding to LFA-1 coated plastic as previously described (Staunton, D. E., et al., Nature 339:61-64 (1989). Immunoprecipitation and indirect immunofluorescence was performed using ICAM-1 MAb RR1/1 (Rothlein, R., et al., J. Immunol. 137:1270-1274 (1986)), R6.5 (Rothlein, R., et al., J. Immunol. 141:1665-1669 (1988)), LB-1 (Clark, E. A., et al., Hum. Immunol. 16:100-113 (1986)) and CL203 (Maio, M., J. Immunol. 143:181-188 (1989), all of which references are incorporated herein by reference).
# (§2) Binding of RR1, R6.5, and LB-2 mAb was normalized to binding of CL203 mAb using Specific Linear Fluorescence Intensity (SLFI): % CL203=(mAbSLFI)×100)/CL203mABSLFI
# (§3) In Table 25, the notation for the mutations uses the one-letter code for the wild-type sequence followed by a slash and the one-letter code for the corresponding mutant sequence. The position of the first amino acid within the sequence is indicated. Wild type residues precede the slash followed by the residues they were substituted for in the mutant. COS cells expressing ICAM-1 mutants were tested for adherence to LFA-1 coated plastic and for binding 35S met-labeled HRV14. LFA-1 and HRV14 binding is normalized for percent of cells expressing mutant ICAM-1 and for binding of wild type expressing cells. Binding is presented as mean and standard error (SE) for multiple experiments (n). Effects of two-fold or greater were reproducible in LFA-1, HRV and mAb binding assays and thus considered significant (bold and underlined). The specific linear fluorescence intensity (SLFI) of CL203 for each mutant is normalized to that of wild type CL203 SLFI (% WT) as discussed above. The SLFI of RR1/1, R6.5 and LB-2 SLFI is normalized to the CL203 SLFI of the mutant (% CL203) as described above.
# RR1/1 mAb = assay: Indirect immunofluorescence flow cytofluorometry: mAb RR1/1 binding to COS cells expressing ICAM-1 mutants (SLFI, % CL203); assay type: cell-based; conditions: SLFI normalized to CL203 SLFI of the mutant
# Experimental: as §1, §2, §3
# R6.5 mAb = assay: Indirect immunofluorescence flow cytofluorometry: mAb R6.5 binding to COS cells expressing ICAM-1 mutants (SLFI, % CL203); assay type: cell-based; conditions: SLFI normalized to CL203 SLFI of the mutant
# Experimental: as §1, §2, §3
# LB-2 mAb = assay: Indirect immunofluorescence flow cytofluorometry: mAb LB-2 binding to COS cells expressing ICAM-1 mutants (SLFI, % CL203); assay type: cell-based; conditions: SLFI normalized to CL203 SLFI of the mutant
# Experimental: as §1, §2, §3
# [1] = COS cells expressing the mutant, relative to wild type
Molecule,LFA-1 Binding % (LFA-1),LFA-1 binding of ICAM-1 mutant (in words) (LFA-1),HRV Binding % (HRV14),Cl203 % WT (SLFI) (CL203 mAb),SLFI (% CL203) RR/1 (RR1/1 mAb),SLFI (% CL203) R6.5 (R6.5 mAb),SLFI (% CL203) LB-2 (LB-2 mAb),LFA-1 binding of ICAM-1 mutant (in words) (LFA-1; listed as E34),HRV14 binding of ICAM-1 mutant (in words) (HRV14; [1]),decrease in HRV14 binding (HRV14; [1])
"V4/G: ICAM-1 mutant, replacement of V4 with G (protein, UniProt P05362 28-532, looked up, variant V4G) Intercellular adhesion …: QTSGSPSKVILPRGGSVLVTCSTSCDQPKLLGIETPLPKKELLLPGNNRKVYELSNVQEDSQPMCYSNCPDGQSTAKTFLTVYWTPERVELAPLPSWQPVGKNLTLRCQVEGGAPRANLTVVLLRGEKELKREPAVGEPAEVTTTVLVRRDHHGANFSCRTELDLRPQGLELFENTSAPYQLQTFVLPATPPQLVSPRVLEVDTQGTVVCSLDGLFPVSEAQVHLALGDQRLNPTVTYGNDSFSAKASVSVTAEDEGTQRLTCAVILGNQSQETLQTVTIYSFPAPNVILTKPEVSEGTEVTVKCEAHPRAKVTLNGVPAQPLGPRAQLLLKATPEDNGRSFSCSATLEVAGQLIHKNQTRELRVLYGPRLDERDCPGNWTWPENSQQTPMCQAWGNPLPELKCLKDGTFPLPIGESVTVTRDLEGTYLCRARSTQGEVTRKVTVNVLSPRYEIVIITVVAAAVIMGTAGLSTYLYNRQRKIKKYRLQQAQKGTPMKPNTQATPP",64%,less able to bind to LFA-1,30%,111 % WT,47 % CL203,73 % CL203,58 % CL203,,,
"R13/E: ICAM-1 mutant, replacement of R13 with E (protein, UniProt P05362 28-532, looked up, variant R13E) Intercellular adhesion …: QTSVSPSKVILPEGGSVLVTCSTSCDQPKLLGIETPLPKKELLLPGNNRKVYELSNVQEDSQPMCYSNCPDGQSTAKTFLTVYWTPERVELAPLPSWQPVGKNLTLRCQVEGGAPRANLTVVLLRGEKELKREPAVGEPAEVTTTVLVRRDHHGANFSCRTELDLRPQGLELFENTSAPYQLQTFVLPATPPQLVSPRVLEVDTQGTVVCSLDGLFPVSEAQVHLALGDQRLNPTVTYGNDSFSAKASVSVTAEDEGTQRLTCAVILGNQSQETLQTVTIYSFPAPNVILTKPEVSEGTEVTVKCEAHPRAKVTLNGVPAQPLGPRAQLLLKATPEDNGRSFSCSATLEVAGQLIHKNQTRELRVLYGPRLDERDCPGNWTWPENSQQTPMCQAWGNPLPELKCLKDGTFPLPIGESVTVTRDLEGTYLCRARSTQGEVTRKVTVNVLSPRYEIVIITVVAAAVIMGTAGLSTYLYNRQRKIKKYRLQQAQKGTPMKPNTQATPP",1%,substantially less capacity to bind LFA-1,10%,202 % WT,4 % CL203,48 % CL203,4 % CL203,,,
"E34/A: ICAM-1 substitution mutant, E34 replaced with A (protein, UniProt P05362 28-532, looked up, variant E34A) Intercellular adhesion …: QTSVSPSKVILPRGGSVLVTCSTSCDQPKLLGIATPLPKKELLLPGNNRKVYELSNVQEDSQPMCYSNCPDGQSTAKTFLTVYWTPERVELAPLPSWQPVGKNLTLRCQVEGGAPRANLTVVLLRGEKELKREPAVGEPAEVTTTVLVRRDHHGANFSCRTELDLRPQGLELFENTSAPYQLQTFVLPATPPQLVSPRVLEVDTQGTVVCSLDGLFPVSEAQVHLALGDQRLNPTVTYGNDSFSAKASVSVTAEDEGTQRLTCAVILGNQSQETLQTVTIYSFPAPNVILTKPEVSEGTEVTVKCEAHPRAKVTLNGVPAQPLGPRAQLLLKATPEDNGRSFSCSATLEVAGQLIHKNQTRELRVLYGPRLDERDCPGNWTWPENSQQTPMCQAWGNPLPELKCLKDGTFPLPIGESVTVTRDLEGTYLCRARSTQGEVTRKVTVNVLSPRYEIVIITVVAAAVIMGTAGLSTYLYNRQRKIKKYRLQQAQKGTPMKPNTQATPP",0%,completely eliminates LFA-1 binding; also recorded: totally eliminates LFA-1 binding,66%,132 % WT,142 % CL203,150 % CL203,142 % CL203,substantially less capacity to bind LFA-1,weak or a non-detectable affect on HRV binding,2 fold
"N103/K: ICAM-1 mutant, replacement of N103 with K (protein, UniProt P05362 28-532, looked up, variant N103K) Intercellular adhesion …: QTSVSPSKVILPRGGSVLVTCSTSCDQPKLLGIETPLPKKELLLPGNNRKVYELSNVQEDSQPMCYSNCPDGQSTAKTFLTVYWTPERVELAPLPSWQPVGKKLTLRCQVEGGAPRANLTVVLLRGEKELKREPAVGEPAEVTTTVLVRRDHHGANFSCRTELDLRPQGLELFENTSAPYQLQTFVLPATPPQLVSPRVLEVDTQGTVVCSLDGLFPVSEAQVHLALGDQRLNPTVTYGNDSFSAKASVSVTAEDEGTQRLTCAVILGNQSQETLQTVTIYSFPAPNVILTKPEVSEGTEVTVKCEAHPRAKVTLNGVPAQPLGPRAQLLLKATPEDNGRSFSCSATLEVAGQLIHKNQTRELRVLYGPRLDERDCPGNWTWPENSQQTPMCQAWGNPLPELKCLKDGTFPLPIGESVTVTRDLEGTYLCRARSTQGEVTRKVTVNVLSPRYEIVIITVVAAAVIMGTAGLSTYLYNRQRKIKKYRLQQAQKGTPMKPNTQATPP",12%,substantially incapable of binding LFA-1,13%,91 % WT,17 % CL203,60 % CL203,22 % CL203,,,
"Q58/H: ICAM-1 substitution mutant, Q58 replaced with H (protein, UniProt P05362 28-532, looked up, variant Q58H) Intercellular adhesion …: QTSVSPSKVILPRGGSVLVTCSTSCDQPKLLGIETPLPKKELLLPGNNRKVYELSNVHEDSQPMCYSNCPDGQSTAKTFLTVYWTPERVELAPLPSWQPVGKNLTLRCQVEGGAPRANLTVVLLRGEKELKREPAVGEPAEVTTTVLVRRDHHGANFSCRTELDLRPQGLELFENTSAPYQLQTFVLPATPPQLVSPRVLEVDTQGTVVCSLDGLFPVSEAQVHLALGDQRLNPTVTYGNDSFSAKASVSVTAEDEGTQRLTCAVILGNQSQETLQTVTIYSFPAPNVILTKPEVSEGTEVTVKCEAHPRAKVTLNGVPAQPLGPRAQLLLKATPEDNGRSFSCSATLEVAGQLIHKNQTRELRVLYGPRLDERDCPGNWTWPENSQQTPMCQAWGNPLPELKCLKDGTFPLPIGESVTVTRDLEGTYLCRARSTQGEVTRKVTVNVLSPRYEIVIITVVAAAVIMGTAGLSTYLYNRQRKIKKYRLQQAQKGTPMKPNTQATPP",109%,substantially normal capacity to bind LFA-1,1%,135 % WT,93 % CL203,107 % CL203,93 % CL203,,virtually eliminated HRV14 binding,
